US20180043006A1 (UNIVERSITY OF VIRGINIA PATENT FOUNDATION, published 2018)

B1: RV-A39 VP2169-188 peptide epitope (peptide)
peptide: SDDNWLNFDGTLLGNLLIFP
notes: Residues 169-188 of RV-A39 VP2; also called RV-A39 VP2 peptide
B2: RV-A16 VP2P21 peptide epitope (peptide)
peptide: NEKQPSDDNWLNFDGTLLGN
notes: 20mer from the overlapping RV-A16 VP2 peptide library, loaded on HLA-DR tetramers
B3: RV-A16 VP1P23 peptide epitope (peptide)
peptide: PRFSLPFLSIASAYYMFYDG
notes: 20mer from the overlapping RV-A16 VP1 peptide library, loaded on HLA-DR tetramers

Key:
[1] = biological target: T1, HLA-DR molecule DRB1*0101 (human); test: peptide displayed on HLA-DR tetramer (TGEM)
T1 construct: Used as a PE-conjugated peptide/MHCII tetramer assembled by a cited method

[2] = biological target: T2, HLA-DR molecule DRB1*0401 (human); test: peptide displayed on HLA-DR tetramer, ex vivo staining
T2 construct: Used as a PE-conjugated peptide/MHCII tetramer assembled by a cited method

[3] = biological target: T2, HLA-DR molecule DRB1*0401; test: peptide displayed on HLA-DR tetramer, ex vivo staining of PBMCs
Text: Biologically relevant pMHCII complexes were identified by tetramer-guided epitope mapping (TGEM). This involved 2 steps: First, PBMC cultures established from subjects with known HLA-DR types were stimulated with RV peptide pools derived from VP1, VP2, or VP4, and then stained with pMHCII tetramer pools composed of HLA-DR molecules corresponding to those expressed in the test subject; Second, positive signals were de-convoluted by repeating and staining with single-peptide tetramers.
All experiments were performed in subjects expressing HLA-DR molecules corresponding to the selected tetramer. Precursor frequencies of circulating tetramer+ cells were then calculated by established methods [43]. Tetramer+ cells were phenotyped for surface markers by staining PBMCs with PE-conjugated tetramers, labeling with anti-PE magnetic beads, enriching with an AutoMACS separator (Miltenyi Biotec, Auburn, Calif., USA), and then counterstaining for surface markers. […] For simplicity, identified RV-A16 peptide epitopes were given a numerical designation.

[4] = biological target: T3, HLA-DR molecule DRB1*0701 (human); test: peptide displayed on HLA-DR tetramer (TGEM)
T3 construct: Used as a PE-conjugated peptide/MHCII tetramer assembled by a cited method

Binder | binding result [1] | binding result [2] | also measured
PHQFINLRSNNSATLIVPYV [RV-A16 VP2P24 peptide epitope] | binds |  | 
B1 |  | binds | 
B2 |  |  | binding result [3]: binds
B3 | binds |  | binding result [4]: binds
AQVRRKFEMFTYVRFDSEIT [RV-A39 VP1105-124 peptide epitope] |  | binds | 
